The target of this test is Recombinant Human ErbB2/Fc Chimera (R&D Systems, Inc.) (human) (UniProt P04626). As to the kind of experiment: SPR, ProteOn XPR36; ErbB2/Fc amine-coupled on GLM chip (about 3000 RU), 1:1 Langmuir fit. In general terms: In SPR one partner is held on a chip, and binding of the other changes the refractive index at the surface.

For the substance “L2-ICG-HSA (Affibody-immobilized ICG-HSA, SM(PEG)2 linker at 100 times the molar amount of ICG-HSA) (from UniProt P02768 25-609)”, the Kd was 0.24 nM.
As to “L1-ICG-HSA (Affibody-immobilized ICG-HSA, SM(PEG)2 linker at 10 times the molar amount of ICG-HSA) (from UniProt P02768 25-609)”, the Kd turned out to be 2.3 nM.

What is called Kd is the free concentration of one partner at which half of the binding sites on the other are occupied at equilibrium, for simple one-to-one binding.
